Laboratory results: US11110182B2, “Multifunctional RNA nanoparticles and methods for treating cancer and therapeutic resistant cancer” (University of Cincinnati, priority 2016, dated 2021)

How the values were obtained:
recombinant Dicer enzyme = molecular target: T1, recombinant Dicer enzyme (Homo sapiens, UniProt Q9UPY3); assay: Digestion with recombinant Dicer enzyme, siRNA release; type: biochemical; details: 1 μg pRNA nanoparticles, 37° C., 12 h
T1 construct: purchased Genlantis
Experimental: FIG. 7A) Six HER2-targeting RNA aptamers were selected from previous literatures, and their secondary structures were predicted using Srna-fold software. FIG. 7B) Six p2 strands containing the six different HER2 RNA aptamers were synthesized and annealed with the same p1 strand to generate six different pRNA-HER2apt-MED1 siRNA nanoparticles, respectively, followed by examination using 8% native PAGE gel electrophoresis. FIG. 7C) BT474 cells were treated with above pRNA nanoparticles for 48 h, and then MED1 protein level was determined by western blotting. […] FIG. 7D) 1 μg pRNA nanoparticles were incubated with recombinant Dicer enzyme (Genlantis) at 37° C. for 12 h, the product was separated by 8% native PAGE gel.
Next, the pRNA nanoparticles were digested with recombinant Dicer enzyme (Genlantis) ^34 to confirm the release of siRNAs as indicated by the generation of 21-23 bp small RNAs after digestion (FIG. 7D).

[1] = system: BT474 orthotopic xenograft tumors; assay: Anti-tumor therapy in BT474 orthotopic xenograft breast tumor mouse model; type: in vivo, athymic nude mice; details: for tumor lung metastasis: H&E staining of whole lung
Experimental: FIG. 5A) BT474 orthotopic xenograft mouse models were treated with control pRNA-HER2apt-siScram or pRNA-HER2apt-siMED1 (4 mg/Kg) once a week, in combination with vehicle or tamoxifen (TAM, 0.5 mg/mice/day) 5 days per week. Tumor sizes were measured every three days. FIG. 5B) After three weeks, mice were i.p. injected with D-luciferin, and representative in vivo images of BT474 tumors were recorded using IVIS Lumina imaging system. FIG. 5C) Average weight of the tumors excised at the end of the treatment, and FIG. 5D) the representative photos of tumors. FIG. 5E and FIG. 5F) MED1 expression in the BT474 tumors was examined using IHC staining and FIG. 5G) immunoblotting. FIG. 5H) The expression of Ki-67 in tumor tissues was analyzed using IHC staining, and FIG. 5I) the percentage of Ki-67 positive cells was counted. Scale bar: 100 μm.
FIG. 6A) Whole lung tissues were fixed, embedded, and sectioned for H&E staining, and FIG. 6B) metastasis foci in the whole lung tissues were then counted. Arrow indicates the metastasis foci. Scale bar: 100 μm. FIG. 6C) After digesting tumor tissues with trypsin and 0.1% collagenase, tumor cells were stained for CD44 and CD24, and FIG. 6D) analyzed for CD44^+CD24^−/low stem cell population using flow cytometry. FIG. 6E) Total RNA in the tumor tissues was extracted using TRIZOL reagent, and the expression of TFF-1, FIG. 6F) c-Myc, FIG. 6G) cyclin D1, and FIG. 6H) MMP-9 were determined by real-time PCR.
Migration and metastasis assay. The 8-μm-pore-size polycarbonate membrane, which separates the two chambers of a 6.5-mm Transwell (Costar), was coated with or without 1:8 DMEM-diluted Matrigel (Corning). Transwell assay was performed as previously described.^57 Briefly, BT474 cells were treated with pRNAs alone or together with 4-hydroxy-tamoxifen (4-OHT) for 48 h and starved with serum-free DMEM containing 0.2% BSA overnight. On the next day, cells were collected and 2×10^5 cells were seeded to the upper chamber of Transwell. The lower chamber was filled with 600 μL DMEM medium containing 10% FBS. After incubation at 37° C. for 24 h, cells on the membranes were fixed and stained with 0.1% crystal violet in 20% ethanol solution. Cells at top side of membranes were removed completely, and cells at the bottom side were examined with an Olympus SZX12 microscope and counted. • Mammosphere culture and breast cancer stem cell analyses. BT474 cells were treated with pRNAs for 48 h. Then, cells were suspended in DMEM/F12 medium supplemented with 1×B27 (Thermo Fisher), 20 ng/mL bFGF and 20 ng/mL EGF (R&D), and added into 24-well ultralow attachment plates. After treatment with or without 1 μM 4-OHT for 7 days, mammosphere formation was recorded using an Axiovert S100 TV inverted microscope (Zeiss). Xenograft tumor tissues were cut into small pieces and digested with trypsin and collagenase at 37° C. for 1 h, and tumor cells were collected and rinsed with pre-cold PBS. All cells were stained with FITC-conjugated anti-CD44 antibody and PE-conjugated anti-CD24 antibody (BD Pharmingen) in the dark on ice for 30 min. After resuspension with 0.5 mL PBS buffer, CD44^+/CD24^−/low cell population was analyzed by flow cytometry. • Orthotopic xenograft breast tumor mouse model, in vivo imaging and anti-tumor therapy. Six-week-old female athymic nude mice were purchased from Charles River Laboratories, and all animal procedures were performed under IACUC-approved protocols at the University of Cincinnati. Athymic nude mice were orthotopically injected with 1×10^7 BT474-luc cells mixed with matrigel into the fat pads of the forth pair of mammary glands. When the tumor sizes reached 100-150 mm^3, the mice were randomly divided into four groups (4/group) and intravenously (i.v.) injected with pRNAs (4 mg/Kg) once a week for three weeks. For tamoxifen treatments, 0.5 mg tamoxifen (Sigma) dissolved in sesame oil was intraperitoneally (i.p.) injected into mice 5 days a week for three weeks. […]

T1 sequence (Q9UPY3 whole entry): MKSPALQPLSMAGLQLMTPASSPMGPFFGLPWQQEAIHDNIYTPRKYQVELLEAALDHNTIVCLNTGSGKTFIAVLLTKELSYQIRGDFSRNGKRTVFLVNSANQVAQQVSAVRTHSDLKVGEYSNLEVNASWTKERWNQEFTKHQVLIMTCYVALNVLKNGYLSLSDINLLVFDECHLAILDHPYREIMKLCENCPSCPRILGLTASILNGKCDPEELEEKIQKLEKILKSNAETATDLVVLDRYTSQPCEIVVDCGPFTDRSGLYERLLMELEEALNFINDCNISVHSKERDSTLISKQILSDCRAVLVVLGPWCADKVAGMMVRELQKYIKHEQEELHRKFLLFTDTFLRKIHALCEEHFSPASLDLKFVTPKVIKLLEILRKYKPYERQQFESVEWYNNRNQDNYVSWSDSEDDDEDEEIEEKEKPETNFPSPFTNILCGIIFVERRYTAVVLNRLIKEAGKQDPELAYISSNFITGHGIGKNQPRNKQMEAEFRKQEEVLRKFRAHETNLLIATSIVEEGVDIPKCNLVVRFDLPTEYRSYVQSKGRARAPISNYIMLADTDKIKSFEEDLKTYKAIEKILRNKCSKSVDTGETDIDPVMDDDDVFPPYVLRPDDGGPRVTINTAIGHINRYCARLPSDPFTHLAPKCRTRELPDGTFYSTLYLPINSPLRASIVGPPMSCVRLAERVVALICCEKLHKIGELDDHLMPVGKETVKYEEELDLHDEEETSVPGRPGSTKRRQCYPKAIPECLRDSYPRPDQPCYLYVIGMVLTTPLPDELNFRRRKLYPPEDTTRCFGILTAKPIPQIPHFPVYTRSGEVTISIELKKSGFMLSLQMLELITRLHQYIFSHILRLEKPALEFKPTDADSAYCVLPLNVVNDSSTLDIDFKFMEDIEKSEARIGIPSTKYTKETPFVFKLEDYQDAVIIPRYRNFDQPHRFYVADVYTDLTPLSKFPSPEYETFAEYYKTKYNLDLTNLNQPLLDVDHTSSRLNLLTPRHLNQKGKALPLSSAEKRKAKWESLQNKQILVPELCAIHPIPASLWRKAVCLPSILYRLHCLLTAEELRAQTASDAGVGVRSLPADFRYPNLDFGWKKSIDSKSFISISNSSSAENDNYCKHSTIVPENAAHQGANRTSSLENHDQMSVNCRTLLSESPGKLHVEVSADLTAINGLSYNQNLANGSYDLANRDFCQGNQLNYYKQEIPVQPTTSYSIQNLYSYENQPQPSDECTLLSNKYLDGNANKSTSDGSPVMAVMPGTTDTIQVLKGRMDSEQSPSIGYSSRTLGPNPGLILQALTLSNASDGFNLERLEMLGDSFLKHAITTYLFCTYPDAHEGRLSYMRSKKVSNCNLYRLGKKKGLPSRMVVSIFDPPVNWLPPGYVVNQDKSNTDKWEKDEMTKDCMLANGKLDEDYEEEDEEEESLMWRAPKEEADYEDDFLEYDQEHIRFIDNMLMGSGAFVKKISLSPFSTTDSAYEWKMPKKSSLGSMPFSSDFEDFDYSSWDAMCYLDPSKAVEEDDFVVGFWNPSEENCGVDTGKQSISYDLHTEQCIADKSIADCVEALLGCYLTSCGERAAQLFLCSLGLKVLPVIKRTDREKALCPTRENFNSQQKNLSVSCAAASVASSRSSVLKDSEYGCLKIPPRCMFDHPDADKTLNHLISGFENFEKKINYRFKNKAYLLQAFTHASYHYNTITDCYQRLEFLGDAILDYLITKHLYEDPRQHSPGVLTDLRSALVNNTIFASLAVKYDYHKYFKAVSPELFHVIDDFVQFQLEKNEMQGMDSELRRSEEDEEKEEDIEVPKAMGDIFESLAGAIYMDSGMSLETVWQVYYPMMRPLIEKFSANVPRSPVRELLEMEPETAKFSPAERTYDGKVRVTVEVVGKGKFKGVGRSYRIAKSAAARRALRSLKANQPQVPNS

B1: pRNA-HER2apt-siMED1: 3-WJ pRNA nanoparticle bearing a HER2-targeting RNA aptamer and two different MED1 siRNAs; strands p1 SEQ ID NO: 3, p2 SEQ ID NO: 4 (nucleic acid)
chain 1: GGACAGUGAAAGUGAGUCAAAGGAUCAAUCAUGGCCAAAGAUGUUACUUUGAGAGCCUU
chain 2: GGCUCUCAAAGUAACAUCUAAGGCCAUGUGUAUGUGGGGGGAGGACGAUGCGGUCUGCUGUGCUUGAUAUGCCCCAGACGACUCGCCCCCCACAUACUUUGUUGAUCCAAUGACUCACUUUCACUGUCCUU
modifications: 2'-F modification; third strand may lack entry; pRNA-HER2apt-siMED1, p1; pRNA-HER2apt-siMED1, p2
small RNAs generated after Dicer digestion (release of siRNAs) (recombinant Dicer enzyme): 21-23 bp
Ki-67 expression in tumor sections ([1]; IHC staining): dramatic reduction
expression of MED1 in tumors ([1]; IHC staining and western blot of BT474 tumors): significantly depleted
CD44^+CD24^−/low cancer stem cells in breast tumors ([1]; combined with tamoxifen, flow cytometry): almost complete depletion
tumor lung metastasis ([1]; in combination with tamoxifen): totally eradicated
tumor growth ([1]; pRNA 4 mg/Kg i.v. once a week in combination with tamoxifen 0.5 mg i.p. 5 days a week, three weeks): almost completely suppressed tumor growth
tumor burden ([1]; pRNA alone, 4 mg/Kg i.v. once a week, three weeks): reduced tumor burden
CD44^+CD24^−/low cancer stem cells in the breast tumors ([1]; pRNA alone, flow cytometry): significantly reduced
tumor lung metastasis ([1]; single agent): totally eradicated
tumor growth ([1]; single agent, pRNA 4 mg/Kg i.v. once a week or tamoxifen 0.5 mg i.p. 5 days a week, three weeks): significantly inhibited tumor growth
